# Reference: patent publication US20220396813
# What was measured:
# Test in all cases: cell_activity
# [1] = test system: T1, Rec22 WP_016392893.1 (Pseudomonas plecoglossicida); conditions: HEK293T inversion; background 1.66
# T1 sequence: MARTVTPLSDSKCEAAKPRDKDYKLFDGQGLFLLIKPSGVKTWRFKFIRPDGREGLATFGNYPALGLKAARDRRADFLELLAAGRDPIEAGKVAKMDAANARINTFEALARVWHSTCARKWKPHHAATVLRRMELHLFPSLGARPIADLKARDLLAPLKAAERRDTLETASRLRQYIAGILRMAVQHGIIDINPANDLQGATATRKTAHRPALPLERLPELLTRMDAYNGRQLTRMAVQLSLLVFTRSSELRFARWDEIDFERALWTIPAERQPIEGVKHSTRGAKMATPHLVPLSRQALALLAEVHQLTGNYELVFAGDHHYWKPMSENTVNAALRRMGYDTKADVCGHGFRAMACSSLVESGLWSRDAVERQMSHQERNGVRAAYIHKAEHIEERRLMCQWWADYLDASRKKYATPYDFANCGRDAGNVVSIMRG
# [2] = test system: T2, Rec24 WP_046407494.1 (Sphingomonas sp.); conditions: HEK293T inversion; background 2.34
# T2 sequence: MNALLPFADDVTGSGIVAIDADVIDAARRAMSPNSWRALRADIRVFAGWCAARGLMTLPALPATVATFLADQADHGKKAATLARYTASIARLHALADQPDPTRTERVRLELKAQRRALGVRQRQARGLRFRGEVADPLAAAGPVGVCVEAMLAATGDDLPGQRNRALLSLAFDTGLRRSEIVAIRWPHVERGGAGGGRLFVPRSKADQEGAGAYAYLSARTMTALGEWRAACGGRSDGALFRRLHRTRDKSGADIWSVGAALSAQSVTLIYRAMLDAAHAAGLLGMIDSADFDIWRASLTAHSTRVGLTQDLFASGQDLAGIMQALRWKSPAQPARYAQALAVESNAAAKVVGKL
# [3] = test system: T3, Rec21 WP_010365336.1 (Pseudoalteromonas citrea); conditions: HEK293T inversion; background 4.91
# T3 sequence: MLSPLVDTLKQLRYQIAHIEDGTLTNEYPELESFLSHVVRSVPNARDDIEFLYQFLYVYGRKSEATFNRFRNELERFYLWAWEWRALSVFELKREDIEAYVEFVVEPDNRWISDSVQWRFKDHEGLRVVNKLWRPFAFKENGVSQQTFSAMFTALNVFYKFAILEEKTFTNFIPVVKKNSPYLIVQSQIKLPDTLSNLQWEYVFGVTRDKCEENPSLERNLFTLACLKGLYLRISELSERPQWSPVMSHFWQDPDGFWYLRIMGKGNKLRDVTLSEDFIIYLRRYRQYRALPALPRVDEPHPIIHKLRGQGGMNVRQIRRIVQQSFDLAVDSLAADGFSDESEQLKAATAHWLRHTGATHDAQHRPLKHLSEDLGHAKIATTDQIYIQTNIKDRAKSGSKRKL
# [4] = test system: T4, Rec18 WP_007635552.1 (Paraglaciecola psychrophila); conditions: HEK293T inversion; background 1.255
# T4 sequence: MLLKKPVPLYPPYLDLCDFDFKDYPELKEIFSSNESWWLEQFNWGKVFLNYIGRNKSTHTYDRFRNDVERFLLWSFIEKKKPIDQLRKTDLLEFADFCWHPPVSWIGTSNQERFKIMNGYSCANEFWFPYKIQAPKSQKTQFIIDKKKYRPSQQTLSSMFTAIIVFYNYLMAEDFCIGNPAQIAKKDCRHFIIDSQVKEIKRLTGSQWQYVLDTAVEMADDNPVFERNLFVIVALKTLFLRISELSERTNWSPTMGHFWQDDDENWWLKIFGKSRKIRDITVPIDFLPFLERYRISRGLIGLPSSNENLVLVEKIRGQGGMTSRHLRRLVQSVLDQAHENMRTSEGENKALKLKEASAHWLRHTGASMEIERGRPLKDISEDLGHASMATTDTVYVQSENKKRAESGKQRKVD
sequence,measurement,setting,value
GACCACTCCAGANNNNNNNNNTCTGGAGTGGTG (double strand) [Rec22 natural site],activity,[1],1.45 % GFP+
GCACTAGCGATANNNNNNNNTATCACTAGTGC (double strand) [Rec24 natural site],activity,[2],17.1 % GFP+
TAATGTCCAATANNNNNNNNTATCGGACATAA (double strand) [Rec21 natural site],activity,[3],4.75 % GFP+
TTATGTCCAATANNNNNNNNTATTGGACATAG (double strand) [Rec17-18 natural site],activity,[4],0.202 % GFP+
